These results are taken from patent US20210338751A1.

Test [1] addresses GII.10 VLPs (human norovirus genotype GII.10). The test can be described thus: blocking of GII.10 VLP binding to pig gastric mucin (HBGA).
The target of test [2] is recombinant HuNoV GI.1 P domain (Human Norovirus (HuNoV) GI.1). Nature of the test: ELISA on recombinant HuNoV GI.1 P domain, Spirulina-expressed Ni-NTA purified protein, sample B1, not freeze-dried. On the technique in general: ELISA stands for enzyme-linked immunosorbent assay.
Test [3] shares this target. Nature of the test: ELISA on recombinant HuNoV GI.1 P domain, Spirulina-expressed Ni-NTA purified protein after freeze-drying.
The target is the same in test [4]. The test can be described thus: ELISA on recombinant HuNoV GI.1 P domain, Spirulina-expressed Ni-NTA purified protein, sample B2, not freeze-dried.
In test [5] the target is recombinant HuNoV GII.17 P domain (Human Norovirus (HuNoV) GII.17). Nature of the test: ELISA on recombinant P domain.
Test [6] has as its target recombinant HuNoV GII.3 P domain (Human Norovirus (HuNoV) GII.3). The test can be described thus: ELISA on recombinant P domain.
The target in test [7] is recombinant HuNoV GII.10 P domain (Human Norovirus (HuNoV) GII.10). Nature of the test: ELISA on recombinant P domain.
Test [8] addresses recombinant HuNoV GII.4 P domain (Human Norovirus (HuNoV) GII.4). Nature of the test: ELISA on recombinant P domain.

B1: SP828 (VHH)
VHH: QVQLQESGGGLVQSGGSLRLSCAASRNINSMHVVGWYRQAPGNQRELVASITDDGSTDYVDSVKGRFTISRDIAENTVYLQMNSLNPEDTAVYYCKGTIVVFTTPMHYWGKGTQVTVSS
The molecule B1 yielded an IC50 (read off the curve) in test [1] of 1 µg/mL.

B2: Nano94 (no chaperone partner) (VHH)
VHH: QVQLQESGGGLVQAGGSLRLSCAASGRMFSINSMGWYRQAPGKERELVATISEAGTTTYADSVRGRFTIARDNAKNTVYLQMNSLNPEDTAVYYCNAYIQLDSTIWFRAYWGQGTQVTVSS
In the case of B2, the results for the EC50 in test [2], in test [3] and in test [4] were 21.2 nM, 25.9 nM and 17.1 nM, respectively.

B3: Nano26-TxnA (VHH, not shown: large carriers)
VHH: QVQLQESGGGLVQPGGSLRLSCTAPRIIFFMYDVGWYRQAPEKQRELVAQINSDVSTKYADSVKGRFTISRDNAKRTVYLQMNDLKPEDAAVYYCNVRRASADYWGQGTQVTVSS
For B3, the EC50 (as a rule, the concentration giving half of the maximal effect) in test [5] was determined as 2.52 nM; in test [6], 4.46 nM; in test [7], 1.46 nM; in test [8], 15.4 nM.
